Laboratory results as given in US20220010021A1 (Sanofi, published 2022).

T1: human beta-Klotho (KLB) (human, UniProt Q86Z14 53-997)
T1 construct: bought recombinant protein, analyte of the BLI off-rate screen; also called human KLB
T1 sequence (looked up): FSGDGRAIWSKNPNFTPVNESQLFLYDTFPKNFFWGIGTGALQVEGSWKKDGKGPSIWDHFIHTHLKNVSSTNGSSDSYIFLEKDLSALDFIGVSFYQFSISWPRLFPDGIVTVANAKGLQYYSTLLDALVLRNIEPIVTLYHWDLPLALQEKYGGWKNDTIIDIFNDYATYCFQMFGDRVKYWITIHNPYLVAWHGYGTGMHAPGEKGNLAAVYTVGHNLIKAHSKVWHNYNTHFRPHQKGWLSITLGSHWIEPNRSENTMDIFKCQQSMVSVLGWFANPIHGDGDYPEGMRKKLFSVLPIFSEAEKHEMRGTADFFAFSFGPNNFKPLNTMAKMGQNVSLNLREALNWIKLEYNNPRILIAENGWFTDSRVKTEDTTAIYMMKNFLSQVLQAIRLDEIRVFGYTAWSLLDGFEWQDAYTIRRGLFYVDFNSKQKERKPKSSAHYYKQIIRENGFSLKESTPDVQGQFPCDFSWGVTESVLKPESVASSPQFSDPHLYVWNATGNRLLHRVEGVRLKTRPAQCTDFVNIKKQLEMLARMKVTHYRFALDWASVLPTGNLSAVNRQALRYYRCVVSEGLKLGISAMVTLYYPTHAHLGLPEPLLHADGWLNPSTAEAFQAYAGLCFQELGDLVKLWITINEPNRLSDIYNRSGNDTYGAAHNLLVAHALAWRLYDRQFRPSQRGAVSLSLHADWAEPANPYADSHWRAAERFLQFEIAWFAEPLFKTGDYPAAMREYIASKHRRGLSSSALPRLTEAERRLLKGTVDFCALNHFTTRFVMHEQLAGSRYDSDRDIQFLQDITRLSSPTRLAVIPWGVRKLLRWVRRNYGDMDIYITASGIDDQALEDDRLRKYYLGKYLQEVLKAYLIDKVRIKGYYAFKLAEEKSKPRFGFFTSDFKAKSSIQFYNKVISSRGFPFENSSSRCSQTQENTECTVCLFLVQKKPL

T2: human beta-Klotho (KLB) (human, UniProt Q86Z14 53-997)
T2 construct: the BLI off-rate screen was run with human and with monkey KLB; also called human KLB; ß-Klotho
T2 sequence (looked up): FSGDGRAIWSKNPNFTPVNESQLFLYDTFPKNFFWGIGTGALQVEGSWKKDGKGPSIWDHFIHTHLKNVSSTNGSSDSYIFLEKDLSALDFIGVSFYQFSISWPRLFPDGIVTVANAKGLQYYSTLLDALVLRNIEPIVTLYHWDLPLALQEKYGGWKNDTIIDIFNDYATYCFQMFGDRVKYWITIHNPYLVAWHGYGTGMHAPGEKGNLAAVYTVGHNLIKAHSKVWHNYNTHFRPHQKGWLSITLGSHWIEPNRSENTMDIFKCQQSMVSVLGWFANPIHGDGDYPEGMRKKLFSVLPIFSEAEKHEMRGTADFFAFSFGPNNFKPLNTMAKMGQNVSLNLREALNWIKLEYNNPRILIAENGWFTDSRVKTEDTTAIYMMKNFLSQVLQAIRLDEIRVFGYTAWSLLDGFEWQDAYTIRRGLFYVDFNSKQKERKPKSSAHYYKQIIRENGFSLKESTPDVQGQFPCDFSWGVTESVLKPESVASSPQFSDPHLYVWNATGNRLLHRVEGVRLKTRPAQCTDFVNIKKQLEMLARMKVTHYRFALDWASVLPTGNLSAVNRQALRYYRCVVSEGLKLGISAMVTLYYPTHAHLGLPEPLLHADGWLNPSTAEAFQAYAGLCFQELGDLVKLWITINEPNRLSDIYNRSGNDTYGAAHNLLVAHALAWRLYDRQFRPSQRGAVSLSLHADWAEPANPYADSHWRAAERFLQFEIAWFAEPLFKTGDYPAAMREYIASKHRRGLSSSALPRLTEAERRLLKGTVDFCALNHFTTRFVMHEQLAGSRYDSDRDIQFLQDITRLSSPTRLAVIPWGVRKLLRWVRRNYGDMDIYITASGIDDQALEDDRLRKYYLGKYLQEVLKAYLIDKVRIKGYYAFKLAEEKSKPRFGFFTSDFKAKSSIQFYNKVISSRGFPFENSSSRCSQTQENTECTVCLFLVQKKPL


Experiments:
human beta-Klotho (KLB) [1] = molecular target: T1, human beta-Klotho (KLB); experiment: BLI off-rate screen
[2] = molecular target: cell surface receptor composed of FGFR1c and co-receptor beta-Klotho (KLB) on iLite FGF21 Assay Ready Cells (human, UniProt P11362 22-822; Q86Z14 1-1044); experiment: cell-based or functional assay
[3] = molecular target: cell-surface receptor complex of human FGFR1c and beta-Klotho (KLB) on iLite FGF21 reporter cells (human, UniProt P11362 22-822; Q86Z14 1-1044); experiment: cell-based or functional assay
human beta-Klotho (KLB) [4] = molecular target: T2, human beta-Klotho (KLB); experiment: BLI off-rate screening (Octet HTX), antibody from supernatant on anti-hIgG Fc capture sensors, KLB 5 nmol/L as analyte

Chain of cell surface receptor composed of FGFR1c and co-receptor beta-Klotho (KLB) on iLite FGF21 Assay Ready Cells (P11362 22-822, chain 1 of 2): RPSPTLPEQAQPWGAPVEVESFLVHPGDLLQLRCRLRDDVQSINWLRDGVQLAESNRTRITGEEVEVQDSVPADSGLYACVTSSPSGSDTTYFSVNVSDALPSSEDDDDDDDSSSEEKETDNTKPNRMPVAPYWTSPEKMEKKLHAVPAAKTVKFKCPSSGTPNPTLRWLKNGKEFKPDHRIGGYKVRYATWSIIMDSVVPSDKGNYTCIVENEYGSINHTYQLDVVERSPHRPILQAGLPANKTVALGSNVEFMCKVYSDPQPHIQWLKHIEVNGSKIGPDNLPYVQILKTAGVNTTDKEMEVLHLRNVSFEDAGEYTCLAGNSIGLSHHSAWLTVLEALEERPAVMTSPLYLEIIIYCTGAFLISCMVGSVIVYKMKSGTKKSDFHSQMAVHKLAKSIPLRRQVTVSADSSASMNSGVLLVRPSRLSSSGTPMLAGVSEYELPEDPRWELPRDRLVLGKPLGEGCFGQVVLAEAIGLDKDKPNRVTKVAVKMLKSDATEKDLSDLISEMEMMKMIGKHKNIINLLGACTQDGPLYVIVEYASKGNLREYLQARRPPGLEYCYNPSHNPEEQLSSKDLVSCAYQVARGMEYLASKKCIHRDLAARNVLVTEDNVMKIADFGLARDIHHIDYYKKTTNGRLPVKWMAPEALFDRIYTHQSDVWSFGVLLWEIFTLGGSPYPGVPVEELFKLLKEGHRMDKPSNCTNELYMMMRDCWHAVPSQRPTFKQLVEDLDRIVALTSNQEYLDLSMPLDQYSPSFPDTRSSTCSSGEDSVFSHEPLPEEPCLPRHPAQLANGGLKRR
Chain of cell surface receptor composed of FGFR1c and co-receptor beta-Klotho (KLB) on iLite FGF21 Assay Ready Cells (Q86Z14 whole entry, chain 2 of 2): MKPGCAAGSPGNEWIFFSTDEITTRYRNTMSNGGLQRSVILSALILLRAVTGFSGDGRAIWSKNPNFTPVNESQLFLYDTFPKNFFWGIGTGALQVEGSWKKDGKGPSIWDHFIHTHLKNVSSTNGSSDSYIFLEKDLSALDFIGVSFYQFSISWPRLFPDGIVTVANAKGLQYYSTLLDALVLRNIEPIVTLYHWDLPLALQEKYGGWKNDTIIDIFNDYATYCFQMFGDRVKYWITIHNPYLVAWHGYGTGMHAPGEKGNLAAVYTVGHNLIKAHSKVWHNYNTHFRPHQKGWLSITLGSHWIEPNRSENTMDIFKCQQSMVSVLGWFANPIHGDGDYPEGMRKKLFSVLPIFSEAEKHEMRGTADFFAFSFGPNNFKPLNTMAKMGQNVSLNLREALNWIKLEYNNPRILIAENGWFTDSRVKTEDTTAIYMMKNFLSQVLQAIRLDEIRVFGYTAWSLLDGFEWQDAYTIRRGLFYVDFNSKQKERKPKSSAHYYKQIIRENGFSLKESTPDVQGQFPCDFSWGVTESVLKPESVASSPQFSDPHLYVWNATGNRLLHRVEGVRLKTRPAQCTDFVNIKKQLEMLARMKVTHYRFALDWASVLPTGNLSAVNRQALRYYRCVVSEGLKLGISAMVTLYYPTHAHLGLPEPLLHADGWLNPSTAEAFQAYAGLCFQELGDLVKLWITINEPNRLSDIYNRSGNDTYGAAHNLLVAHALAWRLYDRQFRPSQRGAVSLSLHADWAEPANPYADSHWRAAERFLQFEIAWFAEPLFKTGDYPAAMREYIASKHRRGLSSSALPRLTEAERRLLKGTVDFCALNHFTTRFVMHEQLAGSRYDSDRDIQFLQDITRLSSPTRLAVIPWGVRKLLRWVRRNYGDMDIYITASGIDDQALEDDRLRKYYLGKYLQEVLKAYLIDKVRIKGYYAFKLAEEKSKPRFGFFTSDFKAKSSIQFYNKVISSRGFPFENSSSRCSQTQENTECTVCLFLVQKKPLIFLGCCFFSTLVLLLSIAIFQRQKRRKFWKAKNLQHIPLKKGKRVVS

| Binder | koff (human beta-Klotho (KLB) [1]) | Mean E max [2] | Mean EC50 [2] | Mean E max (%), Luciferase gene reporter assay [3] | Mean EC50 (nM), Luciferase gene reporter assay [3] | koff (human beta-Klotho (KLB) [4]) |
| --- | --- | --- | --- | --- | --- | --- |
| 16H7 variant with light chain substitution Q88A (antibody, V domains shown) VH: not shown VL: SYVLTQPPSVSVAPGQTARITCGGNNIGSESVHWYQQKPGQAPVLVVYDDSDRPSGIPERFSGSNSGNTATLTISRVEAGDEADYYCAVWDGNSDHVVFGGGTKLTVLG | 0.00011 s⁻¹ | 108% | 0.133 nM |  |  |  |
| 16H7 variant with single point mutation V98S in the light chain (antibody, V domains shown, Tested from HEK293-F supernatant) VH: not shown VL: SYVLTQPPSVSVAPGQTARITCGGNNIGSESVHWYQQKPGQAPVLVVYDDSDRPSGIPERFSGSNSGNTATLTISRVEAGDEADYYCQVWDGNSDHVSFGGGTKLTVLG |  |  |  | 107% | 0.094 nM | 3.9e-05 s⁻¹ |
| 16H7 variant with light chain substitution Q88S (antibody, V domains shown) VH: not shown VL: SYVLTQPPSVSVAPGQTARITCGGNNIGSESVHWYQQKPGQAPVLVVYDDSDRPSGIPERFSGSNSGNTATLTISRVEAGDEADYYCSVWDGNSDHVVFGGGTKLTVLG |  | 104% |  |  |  |  |
| 16H7 variant with single point mutation V98G in the light chain (antibody, V domains shown, Tested from HEK293-F supernatant) VH: not shown VL: SYVLTQPPSVSVAPGQTARITCGGNNIGSESVHWYQQKPGQAPVLVVYDDSDRPSGIPERFSGSNSGNTATLTISRVEAGDEADYYCQVWDGNSDHVGFGGGTKLTVLG |  |  |  | 105% | 0.118 nM | 1.1e-05 s⁻¹ |
| 16H7 variant with light chain substitution Q88G (antibody, V domains shown) VH: not shown VL: SYVLTQPPSVSVAPGQTARITCGGNNIGSESVHWYQQKPGQAPVLVVYDDSDRPSGIPERFSGSNSGNTATLTISRVEAGDEADYYCGVWDGNSDHVVFGGGTKLTVLG | 0.00017 s⁻¹ | 110% | 0.129 nM |  |  |  |
| 16H7 variant with single point mutation V98A in the light chain (antibody, V domains shown, Tested from HEK293-F supernatant) VH: not shown VL: SYVLTQPPSVSVAPGQTARITCGGNNIGSESVHWYQQKPGQAPVLVVYDDSDRPSGIPERFSGSNSGNTATLTISRVEAGDEADYYCQVWDGNSDHVAFGGGTKLTVLG |  |  |  | 99% | 0.139 nM | 4.6e-05 s⁻¹ |

Other lines, results leading:

| koff (human beta-Klotho (KLB) [1]) | Mean E max [2] | Mean EC50 [2] | Mean E max (%), Luciferase gene reporter assay [3] | Mean EC50 (nM), Luciferase gene reporter assay [3] | koff (human beta-Klotho (KLB) [4]) | Binder |
| --- | --- | --- | --- | --- | --- | --- |
|  |  |  | 105% | 0.121 nM | 0.00013 s⁻¹ | 16H7 variant with single point mutation V98L in the light chain (antibody, V domains shown, Tested from HEK293-F supernatant) VH: not shown VL: SYVLTQPPSVSVAPGQTARITCGGNNIGSESVHWYQQKPGQAPVLVVYDDSDRPSGIPERFSGSNSGNTATLTISRVEAGDEADYYCQVWDGNSDHVLFGGGTKLTVLG |
|  |  |  | 99% | 0.099 nM | 5.6e-05 s⁻¹ | 16H7 variant with single point mutation V98W in the light chain (antibody, V domains shown, Tested from HEK293-F supernatant) VH: not shown VL: SYVLTQPPSVSVAPGQTARITCGGNNIGSESVHWYQQKPGQAPVLVVYDDSDRPSGIPERFSGSNSGNTATLTISRVEAGDEADYYCQVWDGNSDHVWFGGGTKLTVLG |
|  |  |  | 103% | 0.107 nM | 1.8e-05 s⁻¹ | 16H7 variant with single point mutation V98H in the light chain (antibody, V domains shown, Tested from HEK293-F supernatant) VH: not shown VL: SYVLTQPPSVSVAPGQTARITCGGNNIGSESVHWYQQKPGQAPVLVVYDDSDRPSGIPERFSGSNSGNTATLTISRVEAGDEADYYCQVWDGNSDHVHFGGGTKLTVLG |
|  |  |  | 100% | 0.109 nM | 5.9e-05 s⁻¹ | 16H7 variant with single point mutation V98Y in the light chain (antibody, V domains shown, Tested from HEK293-F supernatant) VH: not shown VL: SYVLTQPPSVSVAPGQTARITCGGNNIGSESVHWYQQKPGQAPVLVVYDDSDRPSGIPERFSGSNSGNTATLTISRVEAGDEADYYCQVWDGNSDHVYFGGGTKLTVLG |
